In general, Km refers to the substrate concentration at which the rate is half of its maximum.

This is an account of results in patent publication US7786071B2 (priority 2003, dated 2010).

First the molecules themselves.
B1: G3C9.10: G3C9 variant with mutations L69V and E218D; SEQ ID NO: 62, 63 (protein)
chain: MAKLTALTLLGLGLALFDGQKSSFQTRFNVHREVTPVELPNCNLVKGVDNGSEDLEILPNGLAFISSGVKYPGIMSFDPDKSGKILLMDLNEEDPVVLELGITGNTLDISSFNPHGISTFTDEDNTVYLLVVNHPDSSSTVEVFKFQEEEKSLLHLKTIRHKLLPSVNDIVAVGPEHFYATNDHYFADPYLKSWEMHLGLAWSFVTYYSPNDVRVVADGFDFANGINISPDGKYVYIAELLAHKIHVYEKHANWTLTPLKSLDFDTLVDNISVDPVTGDLWVGCHPNGMRIFYYDPKNPPGSEVLRIQDILSEEPKVTVVYAENGTVLQGSTVAAVYKGKLLIGTVFHKALYCEL
modifications: In vitro evolved PON variant G3C9.10
B2: G2D6: second-round directly evolved PON1 variant, thioredoxin-fused; SEQ ID NO: 27 (DNA), 59 (protein) (protein)
chain: MAKLTALTLLGLGLALFDRQKSSFQTRFNVHREVTPVELPNCNLVKGIDNGSEDLEILPNGLAFISSGLKYPGIMSFDPDKSGKILLMDLNEEDPVVLELGITGSTFDLSSFNPHGISTFTDEDNTVYLLVVNHPDSSSTVEVFKFQEKERSLLHLKTIRHKLLPSVNDIVAVGPESFYATNDHYFADPYLKSWEMHLGLAWSFVTYYSPNDVRVVAEGFDFANGINISPDGKYVYIAELLAHKIHVYEKHANWTLTPLKSLDFNTLVDNISVDPVTGDLWVGCHPNGMRIFYYDPENPPGSEVLRIQDILSKEPKVTVVYAENGTVLQGSTVAAVYKGKLLIGTVFHKALYCDL
modifications: thioredoxin fusion; In vitro evolved PON variant G2D6
B3: G1C4: first-round directly evolved PON1 variant, thioredoxin-fused; SEQ ID NO: 26 (DNA), 58 (protein) (protein)
chain: MAKLLALTLVGLGLALFDGQKSSFQTRFNVHREVTPVELPNCNLVKGIETGAEDLEILPNGLAFISSGLKYPGIMSFDPDKSGKILLMDLNEEDPVVLELGITGSTFDLSSFNPHGISTFTDEDNTVYLLVVNHPDSSSTVEVFKFQEKEKSLLHLKTIRHKLLPSVNDIVAVGPEHFYATNDHYFIDPYLKSWEMHLGLAWSFVTYYSPNDVRVVAEGFDFANGINISPDGKYVYIAELLAHKIHVYEKHANWTLTPLKSLDFNTLVDNISVDPVTGDLWVGCHPNGMRIFYYDPKNPPASEVLRIQDILSEDPKITVVYAENGTVLQGTTVASVYKGKLLIGTVFHKALYCDL
modifications: thioredoxin-fused; In vitro evolved PON variant G1C4
B4: G2E6: second-round directly evolved PON1 variant whose 3D structure was solved; SEQ ID NO: 28 (DNA), 60 (protein); 'wt' of Table 12 (protein)
chain: MAKLTALTLLGMGLALFDRQKSSFQTRFNVHREVTPVELPNCNLVKGIDNGSEDLEILPNGLAFISSGLKYPGIMSFDPDKSGKILLMDLNEKEPAVSELEIIGNTLDISSFNPHGISTFIDDDNTVYLLVVNHPGSSSTVEVFKFQEEEKSLLHLKTIRHKLLPSVNDIVAVGPEHFYATNDHYFIDPYLKSWEMHLGLAWSFVTYYSPNDVRVVAEGFDFANGINISPDGKYVYIAELLAHKIHVYEKHANWTLTPLRVLSFDTLVDNISVDPVTGDLWVGCHPNGMRIFFYDAENPPGSEVLRIQDILSEEPKVTVVYAENGTVLQGSTVAAVYKGKLLIGTVFHKALYCDL
modifications: In vitro evolved PON variant G2E6
B5: G2C2: second-generation trx-rPON3 variant; SEQ ID NO: 45, 51 (protein)
chain: MAKLLLLTLLGVGLSLVGERLLAFRNSFGAVQELEPVEPQNCVLIEGLENGSEDIDILPSGLAFISTGLKYPGMPNFAPDEPGKIFLMDLNEQNPRAQALEISGGFDKELFNPHGISTFIDKDNTVYLYVVNHPHMESTVEIFKFEEQQHSLIHLKTIKHELLKSVNDIVVLGPEQFYATRDHYFTNYVLARLEMILDLRWTYVLFYSPREVKVVAKGFSSANGITVSLDKKYVYVADATAKNVHVMEKHDNWDLTQLKVIQLGTLVDNLSVDPATGDILAGCHPNPMKLLNYNPEDPPGSEVLRIQNVLSEKPRVSTVYTNDGSVLQGTSVASVYQGKILIGTIFHKALHCDL
modifications: thioredoxin fusion; In vitro evolved PON variant G2C2
B6: G3H9: third generation trx-rPON3 variant; SEQ ID NO: 48, 54 (protein)
chain: MAKLLLLTLLGVGLSLVGERLLAFRNSFGAVQELESVEPQNCVLIEGLENGSEDIDILPSGLAFISSGLKYPGMPNFAPDEPGKIFLIDMNEKNPRAQELKISNGFEKESFNPHGISTFIDKDHTVYLYVVNHPNMDSTVEIFKFEEQQRSLVHLKTIKHELLKSVNDIVVLGPEQFYATRDHYFTNSLLSFFEMILDLRWTSVVFYSPKEVKVVAKGFSSANGITVSLDKKYVYVADATAKNVHVMEKHDNWDLTPVKVIQLGTLVDNLTVDPATGDILAGCHPNPMKLLNYNPEDPPGSEVLRIQNVLSEKPRVSTVYTNDGSVLQGTSVASVYQGKILIGTIFHKALYCDL
modifications: thioredoxin fusion; In vitro evolved PON variant G3H9
B7: G3A5: third generation trx-rPON3 variant; SEQ ID NO: 46, 52 (protein)
chain: MGELLLLTLLGASLAFVGEMFLAFRERVNASREVEPVEPQNCVLIEGLENGSEDIDILPNGLAFISSGLKYPGMPNFAPDEPGKIFLMDLNEQNPRAQELEISNGFEKESFNPHGISTFIDKDHTVYLYVVNHPNMDSTVEIFKFEERQRSLVHLKTIKHELLKSVNDIVVLGPEQFYATRDRYFTNYVLALLEMILDPHWTSVVFYSPKEVKVVAQGFSSANGITVSLDKKYVYVADATAKNVHVMEKHDNWDLTPVKVIQLGTLVDNLSVDPATGDILAGCHPNPMKLLNYNPEDPPGSEVLRIRNVLSEKPRVSTVYTNDGSVLQGTSVASVYQGKILIGTIFHKTLYCDL
modifications: thioredoxin fusion; In vitro evolved PON variant G3A5
B8: G1A7: first generation trx-rPON3 variant; SEQ ID NO: 43, 49 (protein)
chain: MAKLLLLTLLGVGLSLVGERLLAFRNSFGAVQELEPVEPQNCHLIEGLENGSEDIDILPSGLAFISSGLKYPGMPAFAPDKPGRIFLMDLNEQNPEAQALEISGGLDQESLNPHGISTFIDKDSTAYLYVVNHPNMDSTVEIFKFEEQQRSLVHMKTIKHELLKSVNNIVVLGPEQFYATRDHYFTNSLLSFFEMILDPHWTSVVFYSPREVKVVAKGFSSANGITVSLDKKYVYVADATAKNVHVMEKHDNWDLTELKVIHLDTLVDNLTVDPATGDILAGCHPNPMKLLIYNPEDPPGSEVLRIQDSLSDKPRVSTLYANNGSVLQGTSVASVYHGKILIGTIFHKTLYCDL
modifications: thioredoxin fusion; In vitro evolved PON variant G1A7
B9: G1B11: first generation trx-rPON3 variant; SEQ ID NO: 44, 50 (protein)
chain: MAKLLLLTLLGACLALIGERLLNFRERVSTTREIKATEPQNCHLIEGLENGSEDIDILPSGLAFISSGLKYPGMPNFAPDEPGKIFLIDMNEQNPRAQALEISGGFDKELFNPHGISTFIDKDHTVYLYVVNHPNMDSTVEIFKFEEQQHSLIHLKTLKHELLKSVNDIVVLGPEQFYATRDHYFTNYVLALLKMFLDLRWTSVLFYSPKEVKVVAKGFSSANGITVSLDKKYVYVADATAKNVHVMEKHDNWDLTELKVIQLGTLVDNLTVDPATGDILAGCHPNPMKLLIYNPEDPPGSEVLRIQDVLSEKPRVSTVYANNGSVLQGSTVASVYQGKILIGTIFHKTLYCVL
modifications: thioredoxin fusion; In vitro evolved PON variant G1B11
B10: RabPON3: wild-type rabbit PON3 expressed in E. coli fused to thioredoxin; SEQ ID NO: 30, 41 (protein, listed as Oryctolagus cuniculus)
chain: MAKLLLLTLLGASLAFVGERLLAFRNSFGAVQELEPVEPQNCVLIEGLENGSEDIDILPSGLAFISSGLKYPGMPNFAPDEPGKIFLIDMNEKNPRAQELEISNGFEKESFNPHGISTFIDKDHTVYLYVVNHPHMKSTVEIFKFEEQQRSLVHLKTIKHELLKSVNNIVVLGPEQFYATRDHYFTNYVLALLEMFLDLHWTSVLFYSPKEVKVVAKGFSSANGITVSLDKKYVYVADATAKNVHVMEKHDNWDLTELKVIHLDTLVDNLSVDPATGDILAGCHPNGMKLLNYNPEDPPGSEVLRIQNVLSEKPRVSTVYTNDGSVLQGSTVASVYQGKILIGTIFHKTLYCVL
modifications: thioredoxin fusion
B11: G3G3: third generation trx-rPON3 variant; SEQ ID NO: 47, 53 (protein)
chain: MAKLLLLTLLGASLAFVGERLLAFRDSFGAVQELEPVEPQNCVLIEGLENGSEDIDILPSGLAFISSGLKYPGMPNFAPDEPGKIFLIDMNEKNPRAQALEISGGFDKESFNPHGISTFIDKDHTVYLYVVNHPNMDSTVEVFKFEEQQHSLIHLKTIKHELLKSVNDIVVLGPEQFYATRDHYFTNSLLSFFEMILDLRWTSVLFYSPREVKVVAKGFSSANGITVSLDKKYVYVADVAAKNIHIMEKHDNWDLTELKVIHLDTLVDNLTVDPATGDILAGCHPNPMKLLNYNPEDPPGSEVLRIQNVLSEKPRVSTVYANNGSVLQGTSVASVYHGKILIGTIFHKTLYCDL
modifications: thioredoxin fusion; In vitro evolved PON variant G3G3

The first data set is classed as biochemical. Particulars: read-out: DEPCyC hydrolysis KM.
For B1, the Km came out at 50 µM.

The format of another data set is biochemical. Particulars: pH 8.
With B2, the “kcat(Paraoxon)” value amounted to 0.98 s⁻¹.
Still for that read-out and setting: the figure for B3 is 0.54 s⁻¹.
Same read-out and setting: the figure for B4 is 0.87 s⁻¹.

Still in this data set, the particulars now being: pH 8; read-out: KM(Paraoxon).
With B2, the Km is 100 µM.
Still for that read-out and setting: the figure for B3 is 120 µM.
Still for that read-out and setting: as for B4, the figure is 89 µM.

Staying with this data set, now noted: read-out: Paraxon hydrolysis KM.
On to B5, for which the Km turned out to be 800 µM.
On the same count and under the same terms, as for B6, the figure is 800 µM; as for B7, 510 µM.
On the same count and under the same terms, as for B8, the figure is 2500 µM; as for B9, 1100 µM; as for B10, 1300 µM.

The format of the next data set is biochemical. Particulars: read-out: 2NA hydrolysis KM.
For the molecule B5, the Km stood at 260 µM.
Still for that read-out and setting: the figure for B11 is 650 µM; for B8 it is 160 µM; for B9 it is 180 µM.
The same measure, in the same setting: as for B10, the figure is 211 µM.

The format of a further data set is biochemical. The settings on record: pH 8. The source holds these as a separate data set.
Regarding B2, the “kcat (PheAc)” value came out at 562 s⁻¹.
Still for that read-out and setting: the figure for B3 is 552 s⁻¹; for B4 it is 965 s⁻¹.

The same data set, now with this note: pH 8; read-out: KM(PheAc).
As for B2, the Km came out at 320 µM.
Same read-out and setting: as for B3, the figure is 540 µM; as for B4, 430 µM.

The data set is the same for the next values; noted with them: read-out: Phenylacetate hydrolysis KM.
With B1, the Km is 760 µM.
